Experimental data from paper PMC12263829 (Nature Communications, 2025).

Molecular target: the molecule itself
Assay: Number and Brightness

B1: EGFP-EWSR1::FLI1 (natural protein, human, UniProt Q01844 1-264, looked up)
chain: MASTDYSTYSQAAAQQGYSAYTAQPTQGYAQTTQAYGQQSYGTYGQPTDVSYTQAQTTATYGQTAYATSYGQPPTGYTTPTAPQAYSQPVQGYGTGAYDTTTATVTTTQASYAAQSAYGTQPAYPAYGQQPAATAPTRPQDGNKPTETSQPQSSTGGYNQPSLGYGQSNYSYPQVPGSYPMQPVTAPPSYPPTSYSSTQPTSYDQSSYSQQNTYGQPSSYGQQSSYGQQSSYGQQPPTSYPPQTGSYSQAPSQYSQQSSSYGQQPSYDSVRRGAWGNNMNSGLNKSPPLGGAQTISKNTEQRPQPDPYQILGPTSSRLANPGSGQIQLWQFLLELLSDSANASCITWEGTNGEFKMTDPDEVARRWGERKSKPNMNYDKLSRALRYYYDKNIMTKVHGKRYAYKFDFHGIAQALQPHPTESSMYKYPSDISYMPSYHAHQQKVNFVPPHPSSMPVTSSSFFGAASQYWTSPTGGIYPNPNVPRHPNTHVPSHLGSYY
  stoichiometry N: 3 to 4 molecules

B2: EGFP-∆63EWSR1::FLI1 (domain or fragment, human, UniProt Q01844 64-264, looked up)
chain: TAYATSYGQPPTGYTTPTAPQAYSQPVQGYGTGAYDTTTATVTTTQASYAAQSAYGTQPAYPAYGQQPAATAPTRPQDGNKPTETSQPQSSTGGYNQPSLGYGQSNYSYPQVPGSYPMQPVTAPPSYPPTSYSSTQPTSYDQSSYSQQNTYGQPSSYGQQSSYGQQSSYGQQPPTSYPPQTGSYSQAPSQYSQQSSSYGQQPSYDSVRRGAWGNNMNSGLNKSPPLGGAQTISKNTEQRPQPDPYQILGPTSSRLANPGSGQIQLWQFLLELLSDSANASCITWEGTNGEFKMTDPDEVARRWGERKSKPNMNYDKLSRALRYYYDKNIMTKVHGKRYAYKFDFHGIAQALQPHPTESSMYKYPSDISYMPSYHAHQQKVNFVPPHPSSMPVTSSSFFGAASQYWTSPTGGIYPNPNVPRHPNTHVPSHLGSYY
  stoichiometry N: 3 to 4 molecules
